Test results published in paper PMC10474464, “The mRNA binding-mediated self-regulatory function of small heat shock protein IbpA in γ-proteobacteria is conferred by a conserved arginine” (The Journal of Biological Chemistry, 2023).
Numbering of substitutions follows the chain as printed. In names and notes the source's numbering stands.

T1: Escherichia coli inclusion body-associated protein B (Escherichia coli, UniProt P0C058 1-142)
T1 construct: Small heat shock protein IbpB of Escherichia coli; also called IbpBEc; His-IbpBEc; source: purified with Ni-NTA agarose upon denaturation by 6 M urea
T1 sequence (looked up): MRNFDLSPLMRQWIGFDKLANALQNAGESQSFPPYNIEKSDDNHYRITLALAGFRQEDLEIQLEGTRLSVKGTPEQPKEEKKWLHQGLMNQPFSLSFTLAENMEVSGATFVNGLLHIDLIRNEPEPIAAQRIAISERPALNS

B1: Escherichia coli inclusion body-associated protein A, wild type (natural protein, UniProt P0C054 1-137, looked up)
chain: MRNFDLSPLYRSAIGFDRLFNHLENNQSQSNGGYPPYNVELVDENHYRIAIAVAGFAESELEITAQDNLLVVKGAHADEQKERTYLYQGIAERNFERKFQLAENIHVRGANLVNGLLYIDLERVIPEAKKPRRIEIN
notes: Small heat shock protein IbpA of Escherichia coli, expressed from pCA24N-ibpAEc; also called IbpAEc; IbpAEc-WT; source: E. coli BW25113ΔAB, overexpressed (0.5 mM IPTG), purified (anion exchange chromatography)
B2: Escherichia coli inclusion body-associated protein A, R93A mutant (natural protein, UniProt P0C054 1-137, looked up)
chain: B1 chain with R93A
notes: Small heat shock protein IbpA of Escherichia coli with R93A, made by site-directed mutagenesis of pCA24N-ibpAEc; also called IbpAEc-R93A; IbpA-R93A; source: E. coli BW25113ΔAB, overexpressed (0.5 mM IPTG), purified (anion exchange chromatography)

Experiments:
[1] = biological target: the molecule itself; assay: sucrose density gradient centrifugation; purified IbpA (3 μM, dimeric units) alone in buffer F (50 mM Hepes-KOH pH 7.6, 0.1 M KCl, 5 mM DTT, 20 mM Mg-acetate) on a 10% to 30% (w/v) sucrose gradient, SW 41 Ti, 35,000 rpm, 4 °C, 80 min; fractions by SDS-PAGE with Western blot (anti-IbpA) or CBB staining; oligomeric state
[2] = biological target: T1, Escherichia coli inclusion …; assay: co-sedimentation; sucrose density gradient centrifugation: IbpAEc (3 μM) and IbpBEc (7 μM) in buffer F incubated at room temperature for 30 min, 10% to 30% (w/v) sucrose gradient; SDS-PAGE with 6 M urea and CBB staining; details: both partners purified

Binder	binding result [1]	binding result [2]
B1	binds	binds
B2	binds	binds
